In patent US20140287419A1, “Compositions Having Dicamba Decarboxylase Activity and Methods of Use” (priority 2013, published 2014):

How the values were obtained:
[1] = Detection of 2,5-DCP product by GC/MS; assay type: biochemical; conditions: purified protein
Description: The decarboxylated and demethylated product of dicamba, 2,5-dichloro phenol or 2,5-DCP (FIG. 1E) is measured using a GC/MS analytical procedure with either liquid injection after liquid/liquid extraction using toluene as the extraction solvent or gas injection using head space method. The head space sample analysis is carried out on an Agilent GC/MS system with a 6890A GC, a 5973N MSD and a CTC CombiPAL auto-sampler or with a 7890A GC, a 5975C MSD and an Agilent GC Sampler 80 auto-sampler with Phenomenex ZB-MultiResidue-1 column (30 m length, 0.25 mm diameter, 0.25 um film) or equivalent. GC/MS parameters are: GC inlet temperature, 200° C.; Carry gas, helium in constant flow mode (1.2 mL/min); Oven temperature program, 70° C. for 1 min and then ramp to 275° C. at 40° C./min. […] The reaction vial is transferred to a agitator for incubation at 90° C. for 4 min at 500 rpm. With a syringe preheated at 110° C., 1000 uL of head space is injected with sample fill speed at 100 uL/sec. A 2-mm diameter liner is used in sample inlet. The MS data acquisition is done in SIM (selected ion monitoring) mode. The positive ion at M/Z 162 for the molecular ion of 2,-5-DCP is monitored at retention time of 4.06 min. Solvent delay for MS acquisition is set at 3 min. GC/MS parameters for liquid sample analysis are the same as those for head space analysis, except that the volume of liquid injection is 1 uL.

[2] = 14C assay with purified protein (14CO2 captured on Ca(OH)2 filter paper); assay type: biochemical; conditions: [14C]-carboxyl-labeled dicamba
[3] = Detection of 4-chloro-3-methoxy phenol product by LC-MS/MS; assay type: biochemical; conditions: purified protein
Description: The decarboxylated and chloro hydrolyzed product, 4-chloro-3-methoxy phenol (FIG. 1D), is measured using a LC-MS/MS analytical procedure. […] 10 ul is removed from the reaction mixture and mixed with 90 ul pre-chilled methanol followed by centrifugation at 14,000 rpm for 15 min at 4° C. 10 ul of the supernatant is then transferred into 170 ul ddH2O to achieve 5% methanol solution for injection. 50 ul of the prepared sample is injected into a 4000 Q Trap LC-MS/MS system for sample analysis. LC-MS/MS parameters are: Mobile Phase A, 2 mM ammonium acetate in water; Mobile Phase B, 2 mM ammonium acetate in methanol; Column, Aquasil, 100×2.1 mm, 3 μm, C18 column; Flow Rate, 0.6 ml/min. The MS/MS fragment 157/142 which is common to 4-chloro-3-methoxy phenol, 2-chloro-5-methoxy phenol, and 3-chloro-5-methoxy phenol is monitored at a retention time of 2.88 min.

[4] = Dicamba decarboxylation activity of computationally designed protein variants; conditions: native protein or designed variant versus parent
[5] = 14C assay with IPTG-induced recombinant E. coli cells (14CO2 capture from [14C]-carboxyl-labeled dicamba); conditions: E. coli cell assay, 108 sequences tested
[6] = Saturation mutagenesis of SEQ ID NO:109, dicamba decarboxylation activity of point mutants
[7] = dicamba decarboxylation activity of point mutants of SEQ ID NO: 109 (NNK saturation mutagenesis), relative to the unchanged template
[8] = dicamba decarboxylation activity of single point mutants of SEQ ID NO:109, relative to unchanged template

B1: SEQ ID NO:41: amidohydrolase 2, Polaromonas sp. JS666 (protein, listed as Polaromonas sp.)
chain: MANGKIALEEHFATEETLMDSAGFVPDKDWPELRSRLLDIQDRRVRLMDEHGIETMILSLNAPAVQAIADSTRANETARRANDFLAEQVAKQPTRFRGFAALPMQDPELAARELERCVKELGFVGALVNGFSQDNRSAVPLYYDMAQYWPFWETVQALDVPFYLHPRNPLPSDARIYDGHAWLLGPTWAFGQETAVHALRLMGSGLFDKYPALKIILGHMGEGLPYSMWRIDHRNAWIKTTPKYPAKRKIVDYFNENFYLTTSGNFRTQTLIDAILEIGADRILFSTDWPFENIDHAADWFENTSISEADRKKIGWGNAQNLFKLNR
- 2,5-DCP product [1]: detected
- CO2 product [2]: detected
- 4-chloro-3-methoxy phenol product [3]: detected
- Dicamba Decarboxylase Activity [4]: native dicamba decarboxylase activity
- decarboxylation activity of dicamba [5]: showed decarboxylation activity of dicamba

B2: SEQ ID NO:113: Design variant of SEQ ID NO: 1 (protein)
chain: MAQGKVALEEHFAIPETLQDSAGFVPGDYLKELFHRLLDIQDTRLKLMDAHGIETMILSLNAPAVQAIPDRRKAIEIARRANDVLAEECAKRPDRFLAFAALPLQDPDAATEELQRCVNDLGFVGALVNGFSQEGDGQTPLYYDLPQYRPFWGEVEKLDVPFYLHPRNPLPQDSRIYDGHPWLLGPTWAFAQETAVHALRLMASGLFDEHPRLNIILGHMGEGLPYMMWRIDHRVAWVKLPPRYPAKRRFMDYFNENFHITTSGNFRTQTLIDAILEIGADRILFSTDWPFENIDHASDWFNATSIAEADRVKIGRTNARRLFKLDGA
modifications: Dicamba decarboxylase variant clone DC.4.114
- 2,5-DCP product [1]: detected
- CO2 product [2]: detected
- 4-chloro-3-methoxy phenol product [3]: detected
- Dicamba Decarboxylase Activity [4]: displays an increase in dicamba decarboxylase activity

B3: A64G: point mutation A64G of SEQ ID NO:109 (protein)
chain: MAQGKVALEEHFAIPETLQDSAGFVPGDYWKELQHRLLDIQDTRLKLMDAHGIETMILSLNAPGVQAIPDRRKAIEIARRANDVLAEECAKRPDRFLAFAALPLQDPDAATEELQRCVNDLGFVGALVNGFSQEGDGQTPLYYDLPQYRPFWGEVEKLDVPFYLHPRNPLPQDSRIYDGHPWLLGPTWAFAQETAVHALRLMASGLFDEHPRLNIILGHMGEGLPYMMWRIDHRVAWVKLPPRYPAKRRFMDYFNENFHITTSGNFRTQTLIDAILEIGADRILFSTDWPFENIDHASDWFNATSIAEADRVKIGRTNARRLFKLDGA
modifications: Dicamba decarboxylase variant clone DC.4.032
- Average Activity (Fold of SEQ ID NO: 109) [6, 7]: 2.6 Fold of SEQ ID NO: 109
- Average Activity (Fold of SEQ ID NO: 109) [6, 8]: 2.6 Fold of SEQ ID NO: 109

B4: P63V: point mutation P63V of SEQ ID NO:109 (protein)
chain: MAQGKVALEEHFAIPETLQDSAGFVPGDYWKELQHRLLDIQDTRLKLMDAHGIETMILSLNAVAVQAIPDRRKAIEIARRANDVLAEECAKRPDRFLAFAALPLQDPDAATEELQRCVNDLGFVGALVNGFSQEGDGQTPLYYDLPQYRPFWGEVEKLDVPFYLHPRNPLPQDSRIYDGHPWLLGPTWAFAQETAVHALRLMASGLFDEHPRLNIILGHMGEGLPYMMWRIDHRVAWVKLPPRYPAKRRFMDYFNENFHITTSGNFRTQTLIDAILEIGADRILFSTDWPFENIDHASDWFNATSIAEADRVKIGRTNARRLFKLDGA
modifications: Dicamba decarboxylase variant clone DC.4.032
- Average Activity (Fold of SEQ ID NO: 109) [6, 7]: 1.8 Fold of SEQ ID NO: 109

B5: A64S: point mutation A64S of SEQ ID NO:109 (protein)
chain: MAQGKVALEEHFAIPETLQDSAGFVPGDYWKELQHRLLDIQDTRLKLMDAHGIETMILSLNAPSVQAIPDRRKAIEIARRANDVLAEECAKRPDRFLAFAALPLQDPDAATEELQRCVNDLGFVGALVNGFSQEGDGQTPLYYDLPQYRPFWGEVEKLDVPFYLHPRNPLPQDSRIYDGHPWLLGPTWAFAQETAVHALRLMASGLFDEHPRLNIILGHMGEGLPYMMWRIDHRVAWVKLPPRYPAKRRFMDYFNENFHITTSGNFRTQTLIDAILEIGADRILFSTDWPFENIDHASDWFNATSIAEADRVKIGRTNARRLFKLDGA
modifications: Dicamba decarboxylase variant clone DC.4.032
- Average Activity (Fold of SEQ ID NO: 109) [6, 7]: 2.1 Fold of SEQ ID NO: 109

B6: N61G: point mutation N61G of SEQ ID NO:109 (protein)
chain: MAQGKVALEEHFAIPETLQDSAGFVPGDYWKELQHRLLDIQDTRLKLMDAHGIETMILSLGAPAVQAIPDRRKAIEIARRANDVLAEECAKRPDRFLAFAALPLQDPDAATEELQRCVNDLGFVGALVNGFSQEGDGQTPLYYDLPQYRPFWGEVEKLDVPFYLHPRNPLPQDSRIYDGHPWLLGPTWAFAQETAVHALRLMASGLFDEHPRLNIILGHMGEGLPYMMWRIDHRVAWVKLPPRYPAKRRFMDYFNENFHITTSGNFRTQTLIDAILEIGADRILFSTDWPFENIDHASDWFNATSIAEADRVKIGRTNARRLFKLDGA
modifications: Dicamba decarboxylase variant clone DC.4.032
- Average Activity (Fold of SEQ ID NO: 109) [6, 7]: 2.3 Fold of SEQ ID NO: 109

B7: N61S: point mutation N61S of SEQ ID NO:109 (protein)
chain: MAQGKVALEEHFAIPETLQDSAGFVPGDYWKELQHRLLDIQDTRLKLMDAHGIETMILSLSAPAVQAIPDRRKAIEIARRANDVLAEECAKRPDRFLAFAALPLQDPDAATEELQRCVNDLGFVGALVNGFSQEGDGQTPLYYDLPQYRPFWGEVEKLDVPFYLHPRNPLPQDSRIYDGHPWLLGPTWAFAQETAVHALRLMASGLFDEHPRLNIILGHMGEGLPYMMWRIDHRVAWVKLPPRYPAKRRFMDYFNENFHITTSGNFRTQTLIDAILEIGADRILFSTDWPFENIDHASDWFNATSIAEADRVKIGRTNARRLFKLDGA
modifications: Dicamba decarboxylase variant clone DC.4.032
- Average Activity (Fold of SEQ ID NO: 109) [6, 7]: 2.5 Fold of SEQ ID NO: 109
- Average Activity (Fold of SEQ ID NO: 109) [6, 8]: 2.5 Fold of SEQ ID NO: 109

B8: N214Q: point mutation N214Q of SEQ ID NO:109 (protein)
chain: MAQGKVALEEHFAIPETLQDSAGFVPGDYWKELQHRLLDIQDTRLKLMDAHGIETMILSLNAPAVQAIPDRRKAIEIARRANDVLAEECAKRPDRFLAFAALPLQDPDAATEELQRCVNDLGFVGALVNGFSQEGDGQTPLYYDLPQYRPFWGEVEKLDVPFYLHPRNPLPQDSRIYDGHPWLLGPTWAFAQETAVHALRLMASGLFDEHPRLQIILGHMGEGLPYMMWRIDHRVAWVKLPPRYPAKRRFMDYFNENFHITTSGNFRTQTLIDAILEIGADRILFSTDWPFENIDHASDWFNATSIAEADRVKIGRTNARRLFKLDGA
modifications: Dicamba decarboxylase variant clone DC.4.032
- Average Activity (Fold of SEQ ID NO: 109) [6, 7]: 1.8 Fold of SEQ ID NO: 109
- Average Activity (Fold of SEQ ID NO: 109) [6, 8]: 1.8 Fold of SEQ ID NO: 109
